Measurements as given in patent US20220213213A1.

Columns and labels:
[1] = target: human/mouse 5T4 chimera E5 (human/mouse chimera) (UniProt Q13641); assay: flow cytometry, chimera-transfected cells
[2] = target: human/mouse 5T4 chimera E4 (human/mouse chimera) (UniProt Q13641); assay: flow cytometry, chimera-transfected cells
[3] = target: human/mouse 5T4 chimera E1 (human/mouse chimera) (UniProt Q13641); assay: flow cytometry, chimera-transfected cells
[4] = target: human/mouse 5T4 chimera E7 (human/mouse chimera) (UniProt Q13641); assay: flow cytometry, chimera-transfected cells
[5] = target: human/mouse 5T4 chimera E3 (human/mouse chimera) (UniProt Q13641); assay: flow cytometry, chimera-transfected cells
[6] = target: human/mouse 5T4 chimera E6 (human/mouse chimera) (UniProt Q13641); assay: flow cytometry, chimera-transfected cells
[7] = target: human/mouse 5T4 chimera E2 (human/mouse chimera) (UniProt Q13641); assay: flow cytometry, chimera-transfected cells
[8] = target: human/mouse CD137 chimera 1550 (human/mouse chimera) (UniProt Q07011); assay: flow cytometry, transfected 293-F cells
[9] = target: human/mouse CD137 chimera 1551 (human/mouse chimera) (UniProt Q07011); assay: flow cytometry, transfected 293-F cells
[10] = target: human/mouse CD137 chimera 1554 (human/mouse chimera) (UniProt Q07011); assay: flow cytometry, transfected 293-F cells
[11] = target: human/mouse CD137 chimera 1552 (human/mouse chimera) (UniProt Q07011); assay: flow cytometry, transfected 293-F cells
[12] = target: human/mouse CD137 chimera 1553 (human/mouse chimera) (UniProt Q07011); assay: flow cytometry, transfected 293-F cells
[13] = target: human/mouse CD137 chimera 1555 (human/mouse chimera) (UniProt Q07011); assay: flow cytometry, transfected 293-F cells
[14] = target: human/mouse CD137 chimera 1550 (human/mouse chimera) (UniProt Q07011); assay: flow cytometry, transfected 293-F cells, Exp 2
[15] = target: human/mouse CD137 chimera 1551 (human/mouse chimera) (UniProt Q07011); assay: flow cytometry, transfected 293-F cells, Exp 2
[16] = target: human/mouse CD137 chimera 1554 (human/mouse chimera) (UniProt Q07011); assay: flow cytometry, transfected 293-F cells, Exp 2
[17] = target: human/mouse CD137 chimera 1552 (human/mouse chimera) (UniProt Q07011); assay: flow cytometry, transfected 293-F cells, Exp 2
[18] = target: human/mouse CD137 chimera 1553 (human/mouse chimera) (UniProt Q07011); assay: flow cytometry, transfected 293-F cells, Exp 2
[19] = target: human/mouse CD137 chimera 1555 (human/mouse chimera) (UniProt Q07011); assay: flow cytometry, transfected 293-F cells, Exp 2
[20] = target: human/mouse CD137 chimera 1550 (human/mouse chimera) (UniProt Q07011); assay: flow cytometry, transfected 293-F cells, Exp 1
[21] = target: human/mouse CD137 chimera 1551 (human/mouse chimera) (UniProt Q07011); assay: flow cytometry, transfected 293-F cells, Exp 1
[22] = target: human/mouse CD137 chimera 1554 (human/mouse chimera) (UniProt Q07011); assay: flow cytometry, transfected 293-F cells, Exp 1
[23] = target: human/mouse CD137 chimera 1552 (human/mouse chimera) (UniProt Q07011); assay: flow cytometry, transfected 293-F cells, Exp 1
[24] = target: human/mouse CD137 chimera 1553 (human/mouse chimera) (UniProt Q07011); assay: flow cytometry, transfected 293-F cells, Exp 1
[25] = target: human/mouse CD137 chimera 1555 (human/mouse chimera) (UniProt Q07011); assay: flow cytometry, transfected 293-F cells, Exp 1

| Binder | relative MFI normalized to full-length human CD137 [8] | relative MFI normalized to full-length human CD137 [9] | relative MFI normalized to full-length human CD137 [10] | relative MFI normalized to full-length human CD137 [11] | relative MFI normalized to full-length human CD137 [12] | relative MFI normalized to full-length human CD137 [13] | further results |
| --- | --- | --- | --- | --- | --- | --- | --- |
| 1206/1207 (antibody, V domains shown) VH: EVQLLESGGGLVQPGGSLRLSCAASGFTFSGSSMSWVRQAPGKGLEWVSSIYYSGSGTYYADSVKGRFTISRDNSKNTLYLQMNSLRAEDTAVYYCARYGRNVHPYNLDYWGQGTLVTVSS VL: DIQMTQSPSSLSASVGDRVTITCRASQSISSYLNWYQQKPGKAPKLLIYAASSLQSGVPSRFSGSGSGTDFTLTISSLQPEDFATYYCQQGYYYLPTFGQGTKLEIK |  |  |  |  |  |  | normalized % positive cells [1]: 0.9; normalized % positive cells [2]: 0.52; normalized % positive cells [3]: 0.96; normalized % positive cells [4]: 0.94; normalized % positive cells [5]: 0.25; normalized % positive cells [6]: 0.94; normalized % positive cells [7]: 0.74 |
| 1618/1619 (antibody, V domains shown) VH: EVQLLESGGGLVQPGGSLRLSCAASGFTFSYGSMYWVRQAPGKGLEWVSSISSGSGSTYYADSVKGRFTISRDNSKNTLYLQMNSLRAEDTAVYYCARSSYYGSYYSIDYWGQGTLVTVSS VL: DIQMTQSPSSLSASVGDRVTITCRASQSISSYLNWYQQKPGKAPKLLIYAASSLQSGVPSRFSGSGSGTDFTLTISSLQPEDFATYYCQQYYDNLPTFGQGTKLEIK | 0.11 | 0.67 | 1.01 | 1.2 | 1.24 | 0.12 |  |
| 1212/1213 (antibody, V domains shown) VH: EVQLLESGGGLVQPGGSLRLSCAASGFTFSSYAMSWVRQAPGKGLEWVSYISSYGGYTSYADSVKGRFTISRDNSKNTLYLQMNSLRAEDTAVYYCARYHSGVLDYWGQGTLVTVSS VL: DIQMTQSPSSLSASVGDRVTITCRASQSISSYLNWYQQKPGKAPKLLIYAASSLQSGVPSRFSGSGSGTDFTLTISSLQPEDFATYYCQQYYYHYLLTFGQGTKLEIK |  |  |  |  |  |  | normalized % positive cells [1]: 0.84; normalized % positive cells [2]: 1; normalized % positive cells [3]: 0.89; normalized % positive cells [4]: 0.88; normalized % positive cells [5]: 0.93; normalized % positive cells [6]: 0.03; normalized % positive cells [7]: 0.9 |
| 1626/1627 (antibody, V domains shown) VH: EVQLLESGGGLVQPGGSLRLSCAASGFTFGGYSMYWVRQAPGKGLEWVSSIGGYYYSTYYADSVKGRFTISRDNSKNTLYLQMNSLRAEDTAVYYCARSYYGSIDYWGQGTLVTVSS VL: DIQMTQSPSSLSASVGDRVTITCRASQSISSYLNWYQQKPGKAPKLLIYAASSLQSGVPSRFSGSGSGTDFTLTISSLQPEDFATYYCQQGTGYGPLTFGQGTKLEIK | 0.1 | 0.11 | 0.12 | 0.11 | 0.14 | 0.29 |  |
| 1204/1205 (antibody, V domains shown) VH: EVQLLESGGGLVQPGGSLRLSCAASGFTFSSYYMGWVRQAPGKGLEWVSGIGSYYGYTGYADSVKGRFTISRDNSKNTLYLQMNSLRAEDTAVYYCARAYYDYNYYYAYFDYWGQGTLVTVSS VL: DIQMTQSPSSLSASVGDRVTITCRASQSISSYLNWYQQKPGKAPKLLIYAASSLQSGVPSRFSGSGSGTDFTLTISSLQPEDFATYYCQQSVPHYPFTFGQGTKLEIK | 0.07 | 0.11 | 0.73 | 0.13 | 0.85 | 0.28 |  |
| 1202/1203 (antibody, V domains shown) VH: EVQLLESGGGLVQPGGSLRLSCAASGFTFYGSSMSWVRQAPGKGLEWVSSIYYGSSGTYYADSVKGRFTISRDNSKNTLYLQMNSLRAEDTAVYYCARSYYGYFDYWGQGTLVTVSS VL: DIQMTQSPSSLSASVGDRVTITCRASQSISSYLNWYQQKPGKAPKLLIYAASSLQSGVPSRFSGSGSGTDFTLTISSLQPEDFATYYCQQYYTVVPFTFGQGTKLEIK | 0.05 | 0.05 | 0.51 | 0.06 | 0.65 | 0.26 |  |
| 1200/1201 (antibody, V domains shown) VH: EVQLLESGGGLVQPGGSLRLSCAASGFTFSSYAMSWVRQAPGKGLEWVSGISGGGGGTYYADSVKGRFTISRDNSKNTLYLQMNSLRAEDTAVYYCARDVAYFDYWGQGTLVTVSS VL: DIQMTQSPSSLSASVGDRVTITCRASQSISSYLNWYQQKPGKAPKLLIYAASSLQSGVPSRFSGSGSGTDFTLTISSLQPEDFATYYCQQYYIPHTFGQGTKLEIK | 0.05 | 0.04 | 0.84 | 0.05 | 0.65 | 0.24 |  |
| 1214/1215 (antibody, V domains shown) VH: EVQLLESGGGLVQPGGSLRLSCAASGFTFSSYAMSWVRQAPGKGLEWVSSIGSGGGYTGYADSVKGRFTISRDNSKNTLYLQMNSLRAEDTAVYYCARVGHPFDYWGQGTLVTVSS VL: DIQMTQSPSSLSASVGDRVTITCRASQSISSYLNWYQQKPGKAPKLLIYAASSLQSGVPSRFSGSGSGTDFTLTISSLQPEDFATYYCQQDAYPHTFGQGTKLEIK |  |  |  |  |  |  | relative MFI normalized to full-length human CD137 [14]: 0.14; relative MFI normalized to full-length human CD137 [15]: 0.15; relative MFI normalized to full-length human CD137 [16]: 0.15; relative MFI normalized to full-length human CD137 [17]: 0.13; relative MFI normalized to full-length human CD137 [18]: 0.15; relative MFI normalized to full-length human CD137 [19]: 0.45; relative MFI normalized to full-length human CD137 [20]: 0.06; relative MFI normalized to full-length human CD137 [21]: 0.07; relative MFI normalized to full-length human CD137 [22]: 0.26; relative MFI normalized to full-length human CD137 [23]: 0.32; relative MFI normalized to full-length human CD137 [24]: 0.41; relative MFI normalized to full-length human CD137 [25]: 0.3 |
| 1620/1621 (antibody, V domains shown) VH: EVQLLESGGGLVQPGGSLRLSCAASGFTFSGYYMYWVRQAPGKGLEWVSGISSSGSYTYYADSVKGRFTISRDNSKNTLYLQMNSLRAEDTAVYYCARSVGPYFDYWGQGTLVTVSS VL: DIQMTQSPSSLSASVGDRVTITCRASQSISSYLNWYQQKPGKAPKLLIYAASSLQSGVPSRFSGSGSGTDFTLTISSLQPEDFATYYCQQGVGPYTFGQGTKLEIK | 0.17 | 0.33 | 0.17 | 0.18 | 0.17 | 0.32 |  |
